US20250136674A1 (KYOTO UNIVERSITY, published 2025)

Biological target: T1, purified full-length recombinant mouse USAG-1 (mouse, UniProt Q9CQN4 24-206)
T1 construct: also called purified recombinant mouse USAG-1 protein
T1 sequence (looked up): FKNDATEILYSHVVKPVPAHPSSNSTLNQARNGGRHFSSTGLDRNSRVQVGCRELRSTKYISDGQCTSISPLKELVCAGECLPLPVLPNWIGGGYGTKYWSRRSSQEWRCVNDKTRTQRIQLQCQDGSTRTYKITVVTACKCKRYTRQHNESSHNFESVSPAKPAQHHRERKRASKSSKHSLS
Test: BLI (Octet Red), antibody immobilised, mouse USAG-1 at 10, 30 and 100 nM, global fitting
Experimental: For the antibody obtained in Example 1, affinity (KD values) was determined by using a BLI method based on Octet (registered trademark) Red (manufactured by Pall ForteBio). Specifically, each antibody was immobilized on the biosensor, the purified recombinant mouse USAG-1 protein was added at three different concentrations (10 nM, 30 nM, 100 nM), and binding and dissociation curves were obtained. The affinities were calculated by subjecting the obtained curves to global fitting with an analysis program attached to the Octet device.

Kd: 3.26 nM
B1: mouse anti-USAG-1 neutralizing antibody B48C (antibody, V domains shown)
VH: EVQLQQSGAELVRPGASVKLSCTASGFNIKDDYMHWVKQRPEQGLEWIGWIDPENGDTEYASKFQGKATITADTSSNTAYLQLSSLTSEDTAVYYCITPYYYGSSFSYWYFDVWGTGTTVTVSS
VL: DVLMTQTPLSLPVSLGDQASISCRSSQSIVHSNGNTYLEWYLQKPGQSPKLLIYKVSNRFSGVPDRFSGSGSGTDFTLKISRVEAEDLGVYYCFQGSHVPWTFGGGTKLEIKR
notes: Mouse monoclonal from a hybridoma (USAG-1 KO mouse immunised with rat USAG-1)
